Target: polyhistidine-tagged canine PD-L1 protein (cPD-L1-His) (dog)
Experiment: SPR; Biacore X100, CM5 chip, His Capture Kit: cPD-L1-His captured by immobilised anti-histidine antibody (approximately 400 RU); cPD-1-Ig or cCD80-Ig flowed over; HBS-EP+ running and dilution buffer; two state reaction model

Kd [nM] | Substance
24.3 | recombinant canine CD80 protein fused to rabbit IgG Fc (cCD80-Ig) (Fc fusion)
25.4 | recombinant canine PD-1 protein (cPD-1-Ig) (Fc fusion)

— paper PMC5567082
